The results in this text go back to publication PMC5842376.

The experiment addresses ISCU(M108I) (human) (UniProt Q9H1K1). Description: ITC. A general note: ITC needs no label: the signal is the heat of the interaction.

In general, Kd refers to a measure of binding affinity in units of concentration. High values mean lower affinity, low ones higher affinity. Regarding “human cysteine desulfurase complex (NIA)2, [NFS1]2:[ISD11]2:[Acp]2 (from UniProt Q9HD34 1-91; P0A6A8 1-78)”, the Kd was 2600 nM.
